Data reported in IntAct's records for PubMed 21505419.

B1: Suppressor protein STP22 of temperature-sensitive alpha-factor receptor and arginine permease (Saccharomyces cerevisiae), P25604 (parent)
chain: MSANGKISVPEAVVNWLFKVIQPIYNDGRTTFHDSLALLDNFHSLRPRTRVFTHSDGTPQLLLSIYGTISTGEDGSSPHSIPVIMWVPSMYPVKPPFISINLENFDMNTISSSLPIQEYIDSNGWIALPILHCWDPAAMNLIMVVQELMSLLHEPPQDQAPSLPPKPNTQLQQEQNTPPLPPKPKSPHLKPPLPPPPPPQPASNALDLMDMDNTDISPTNHHEMLQNLQTVVNELYREDVDYVADKILTRQTVMQESIARFHEIIAIDKNHLRAVEQAIEQTMHSLNAQIDVLTANRAKVQQFSSTSHVDDEDVNSIAVAKTDGLNQLYNLVAQDYALTDTIECLSRMLHRGTIPLDTFVKQGRELARQQFLVRWHIQRITSPLS
partner: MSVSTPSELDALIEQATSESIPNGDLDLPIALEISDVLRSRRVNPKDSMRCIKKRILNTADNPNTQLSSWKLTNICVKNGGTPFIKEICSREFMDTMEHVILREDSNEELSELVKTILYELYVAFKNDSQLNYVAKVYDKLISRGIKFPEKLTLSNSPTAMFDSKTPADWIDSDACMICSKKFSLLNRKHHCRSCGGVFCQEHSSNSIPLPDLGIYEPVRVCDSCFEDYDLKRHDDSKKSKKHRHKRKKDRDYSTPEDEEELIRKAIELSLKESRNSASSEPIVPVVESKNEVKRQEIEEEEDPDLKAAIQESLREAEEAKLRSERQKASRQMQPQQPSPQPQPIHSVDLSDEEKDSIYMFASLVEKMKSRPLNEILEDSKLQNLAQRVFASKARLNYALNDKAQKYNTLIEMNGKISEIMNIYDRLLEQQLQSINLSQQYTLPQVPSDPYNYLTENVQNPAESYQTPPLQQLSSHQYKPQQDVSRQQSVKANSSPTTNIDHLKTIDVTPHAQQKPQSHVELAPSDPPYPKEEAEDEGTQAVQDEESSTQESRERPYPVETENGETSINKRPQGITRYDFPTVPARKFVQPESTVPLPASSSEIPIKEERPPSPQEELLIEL

Variants of: B1
Conditions: with vps27_yeast VPS27, P40343

Row | effect of a mutation on the interaction | Variant
1 | decreasing interaction | T49V

Variants of: B1
Conditions: with vps27_yeast VPS27, P40343
Remark: another data set of the same source

Row | effect of a mutation on the interaction | Variant
2 | disrupting interaction | W16A

Variants of: B1
Conditions: with vps27_yeast VPS27, P40343
Remark: another data set of the same source

Row | effect of a mutation on the interaction | Variant
3 | decreasing interaction | L61N
